B1: wild type AS: Wild type glycoside hydrolase: amylosucrase (ASNPwt) 1G5A of sequence SEQ ID NO: 13, from Neisseria polysaccharea (protein, listed as Neisseria polysaccharea)
chain: SPNSQYLKTRILDIYTPEQRAGIEKSEDWRQFSRRMDTHFPKLMNELDSVYGNNEALLPMLEMLLAQAWQSYSQRNSSLKDIDIARENNPDWILSNKQVGGVCYVDLFAGDLKGLKDKIPYFQELGLTYLHLMPLFKCPEGKSDGGYAVSSYRDVNPALGTIGDLREVIAALHEAGISAVVDFIFNHTSNEHEWAQRCAAGDPLFDNFYYIFPDRRMPDQYDRTLREIFPDQHPGGFSQLEDGRWVWTTFNSFQWDLNYSNPWVFRAMAGEMLFLANLGVDILRMDAVAFIWKQMGTSCENLPQAHALIRAFNAVMRIAAPAVFFKSEAIVHPDQVVQYIGQDECQIGYNPLQMALLWNTLATREVNLLHQALTYRHNLPEHTAWVNYVRSHDDIGWTFADEDAAYLGISGYDHRQFLNRFFVNRFDGSFARGVPFQYNPSTGDCRVSGTAAALVGLAQDDPHAVDRIKLLYSIALSTGGLPLIYLGDEVGTLNDDDWSQDSNKSDDSRWAHRPRYNEALYAQRNDPSTAAGQIYQDLRHMIAVRQSNPRFDGGRLVTFNTNNKHIIGYIRNNALLAFGNFSEYPQTVTAHTLQAMPFKAHDLIGGKTVSLNQDLTLQPYQVMWLEIA
B2: I228Y: 1G5A (N. polysaccharea amylosucrase, SEQ ID NO: 13) single mutant, isoleucine 228 replaced by tyrosine (protein, listed as Neisseria polysaccharea)
chain: SPNSQYLKTRILDIYTPEQRAGIEKSEDWRQFSRRMDTHFPKLMNELDSVYGNNEALLPMLEMLLAQAWQSYSQRNSSLKDIDIARENNPDWILSNKQVGGVCYVDLFAGDLKGLKDKIPYFQELGLTYLHLMPLFKCPEGKSDGGYAVSSYRDVNPALGTIGDLREVIAALHEAGISAVVDFIFNHTSNEHEWAQRCAAGDPLFDNFYYIFPDRRMPDQYDRTLREYFPDQHPGGFSQLEDGRWVWTTFNSFQWDLNYSNPWVFRAMAGEMLFLANLGVDILRMDAVAFIWKQMGTSCENLPQAHALIRAFNAVMRIAAPAVFFKSEAIVHPDQVVQYIGQDECQIGYNPLQMALLWNTLATREVNLLHQALTYRHNLPEHTAWVNYVRSHDDIGWTFADEDAAYLGISGYDHRQFLNRFFVNRFDGSFARGVPFQYNPSTGDCRVSGTAAALVGLAQDDPHAVDRIKLLYSIALSTGGLPLIYLGDEVGTLNDDDWSQDSNKSDDSRWAHRPRYNEALYAQRNDPSTAAGQIYQDLRHMIAVRQSNPRFDGGRLVTFNTNNKHIIGYIRNNALLAFGNFSEYPQTVTAHTLQAMPFKAHDLIGGKTVSLNQDLTLQPYQVMWLEIA

What was measured:
Type in all cases: biochemical
[1] = Screening of AS single mutant library for glucosylation of α-L-Rhap-OMe (HPLC); conditions: FIG. 6
Experimental: The protocol was established to enable the rapid identification of clones able to glucosylate α-L-Rhap-OMe (formula II). To obtain higher amounts of enzymes and facilitate detection of glucosylated compounds upon HPLC screening, mutants were produced in 96-DeepWell Format plates. Storage microplates containing monomutants were thawed and replicated to inoculate a starter culture in 96-well microplates containing, in each well, 150 μL LB medium supplemented with ampicillin (100 μg/mL). After growth for 24 h at 30° C. under agitation (200 rpm), plates were duplicated into 96-Deep Well plates containing, in each well, 1.1 mL LB medium supplemented with ampicillin (100 μg/mL) and IPTG (1 mM) to induce GST-AS expression. Cultures were then grown for 24 h at 30° C. under agitation (200 rpm). […]
Efficiency of the glucosylation reaction was evaluated by HPLC analysis of the acceptor reaction product synthesized when using α-L-Rhap-OMe as acceptor using a Dionex P 680 series pump, a Shodex RI 101 series refractometer, a Dionex UVD 340 UV/Vis detector and an autosampler HTC PAL. […]
For each of the 7 selected positions, 19 single mutants were generated (corresponding to each possible amino acid change). […] Both sucrose consumption and disaccharide formation were determined in order to calculate the glucosylation rate defined as the molar ratio of monoglucosylated acceptor versus/sucrose consumed.

[2] = Comparison of products synthesized by wild type and AS variant I228Y (HPAEC/HPLC); conditions: for recognition of α-L-RhapO-Me as an acceptor: purified enzyme, HPLC, FIG. 7A
Experimental: All assays were performed at 30° C. in 50 mM Tris buffer, pH=7.0.
Comparison of products synthesized by wild type and AS variant. Reactions were performed in the presence of 146 mM sucrose alone or supplemented with 146 mM acceptor. The purified wild-type or mutated GST/AS were employed at 0.5 U/mL. The reactions were stopped by heating at 95° C. for […]. The final mixture was centrifuged at 18 000 g for 5 min.
Soluble and insoluble oligosaccharides produced during the reaction were identified by HPAEC using a Dionex Carbo-Pack PA100 column at 30° C. Before analysis, the insoluble fraction was solubilised in KOH at a final total sugar concentration of 10 g/kg. Mobile phase (150 mM NaOH) was set at 1 mL/min flow rate with a sodium acetate gradient (going from 6 to 500 mM within 120 min). Detection was performed using a Dionex ED40 module with a gold working electrode and an Ag/AgCl pH reference. Note that α-L-Rhap-OMe (acceptor) and its derivatives are not oxidable products and thus are not detectable by HPAEC. Sucrose, glucose, fructose, α-L-Rhap-OMe (acceptor) and its derivatives (glucosylation products) were quantified by HPLC, as previously described.

[3] = Determination of kinetic parameters (catalytic efficiency) of ASNPwt and I228Y; conditions: for activation in the presence of α-L-RhapO-Me: increasing concentration of acceptor, FIG. 7D(b), 7E
Experimental: Catalytic efficiency (Eff=kcat/KM) of ASNPwt and I228Y variant were determined with both sucrose (D=Donor) and methyl α-L-rhamnopyranoside (A=Acceptor) as variable substrates. For the determination of the catalytic efficiency for D, A was held constant at 250 mM and D was varied between 0 and 600 mM. For the determination of the catalytic efficiency for A, D was held constant at 250 mM and A was varied between 0 and 500 mM. Experiments were performed until A and D solubility limits were reached. For each experiment, two distinct reaction velocities were determined: (1) the donor consumption determined by the release of fructose (called Vi (F)), corresponding to the overall kinetics of the different reactions described in FIG. 3 and (2) the acceptor glucosylation determined by the formation of α-D-Glcp-(1→3)-α-L-RhapOMe (called Vi(Dp2)), corresponding to the kinetics of the reaction of interest.
Initial velocities were fitted to the Michaelis-Menten equation using Sigma-Plot. As saturation was not achieved with the mutant, efficiency was calculated by linear regression analysis of the velocity versus substrate concentration plot. Aliquots (200 μL) were removed between 0 and 60 min (at which time product formation was still linear with respect to time), heated at 95° C. for 5 min and centrifuged at 18 000 g for 5 min. The final mixtures were filtered on a 0.22 μm membrane and analyzed using HPLC material previously described. HPLC analyses were performed using two columns: 1) a Biorad HPLC Carbohydrate Analysis column (HPX-87H column (300×7.8 mm)) maintained at 30° C., using ultra-pure water as eluent with a flow rate of 0.6 mL/min; 2) a reversed phase analytical column (Synergi C18RPFusion, 4 μm, 30×4.6 mm) kept at room temperature, with 1 ml/min of ultra-pure water as eluent. HPX-87H column was used to determine the released fructose by RI detection. C18RPfusion column was used to detect the formation of α-D-Glcp-(1→3)-α-L-RhapOMe.

[4] = Enzymatic glucosylation of L-Rhap by 1G5A mutants; conditions: sucrose donor and L-Rhap acceptor 1:1, 146 mM
Experimental: (§1) The enzymatic reaction was carried out using sucrose as donor and rhamnose derivative as acceptor in a 1:1 ratio (146 mM for L-Rhap, 50 mM for α-L-Rhap-OAll).
(§2) Efficiency of the glucosylation reaction was evaluated by HPLC analysis of the acceptor reaction product synthesized using a reversed phase analytical column (Synergi C18RPFusion, 4 μm, 30×4.6 mm) (when testing L-Rhap) and a Biorad HPLC Carbohydrate Analysis column (HPX-87K column (300×7.8 mm)) when testing α-L-Rhap-OAll. (cf. Example 1/Materials and Methods/Screening of mutant library)

[5] = Enzymatic glucosylation of α-L-Rhap-OAll by 1G5A mutants; conditions: sucrose donor and α-L-Rhap-OAll acceptor 1:1, 50 mM
Experimental: as §1, §2

[6] = 146 mM sucrose supplemented with 146 mM acceptor

Molecule | recognition of α-L-Rhap-OMe as acceptor / ability to form the desired disaccharide [1] | effect of the presence of α-L-RhapO-Me in the reaction medium on the product profile [2, 6] | recognition of α-L-RhapO-Me as an acceptor [2, 6] | activation in the presence of α-L-RhapO-Me [3] | catalytic efficiency ([3]; sucrose constant 250 mM, varied acceptor concentration) | Vi(Dp2) (acceptor glucosylation velocity) ([3]; sucrose constant 250 mM, varied acceptor concentration, FIG. 7E) | glucosylation of L-rhamnose with α-(1→3) linkage [4] | ability to glucosylate α-L-Rhap-OAll [5] | major reaction occurring ([2]; sole presence of sucrose) | highest Dp observed (maltooligosaccharide chains) ([2]; sole presence of sucrose, 146 mM, FIG. 7B)
B1 | does not recognize the α-L-RhapO-Me as an acceptor | does not affect the product profile | does not recognize at all α-L-RhapO-Me as an acceptor | no activation | null catalytic efficiency | 0 | lacks this newly described specific activity | lacks this newly described specific activity | – | –
B2 | – | – | recognizes α-L-RhapO-Me as an acceptor to form in majority a Dp2 | clear activation | – | – | observed for all mutants except I228Y | – | Hydrolysis | 5

From US20110144317A1, “MUTANTS OF GLYCOSIDE HYDROLASES AND USES THEREOF FOR SYNTHESIZING COMPLEX OLIGOSACCHARIDES AND DISACCHARIDE INTERMEDIATES” (priority 2008, published 2011)
